Test results: patent publication US20030236190A1 (published 2003)
Non-standard residues stand in square brackets, D forms with d. No end group written: not given here. *: point of attachment. Biotin = O=C1N[C@H]2[C@H](CS[C@H]2CCCCC(=O)*)N1; Bpa = N[C@@H](Cc1ccc(C(=O)c2ccccc2)cc1)C(=O)O; Tyr(3-I) = N[C@@H](Cc1ccc(O)c(I)c1)C(=O)O; Tic = O=C(O)[C@@H]1Cc2ccccc2CN1; Ac6c = NC1(C(=O)O)CCCCC1

B1: S527 (peptide)
peptide: H[Ac6c]CAQE[dW]GSEL[Tic]QCSGSESFYDWFERQL
modifications: not fully specified (bridges); printed as H-Acy-CAQEwGSEL-Tic-QCSGSESFYDWFERQL; cysteine pairing not given here
notes: leading H- read as His; it may mean a free N-terminus
B2: S591 (peptide)
peptide: LEEEWAQIECEVWGRGCSGSLDESF[Tyr(3-I)]DWFERQLG
modifications: not fully specified (bridges); printed as LEEEWAQIECEVWGRGCSGSLDESF-IodoTyr-DWFERQLG; cysteine pairing not given here
B3: S546 (peptide)
peptide: SLEEEWAQVECEV[Bpa]GRGCPSGSLDESFYDWFERQ[Bpa]GK(Biotin)
modifications: not fully specified (bridges); printed as SLEEEWAQVECEV-Bpa-GRGCPSGSLDESFYDWFERQ-Bpa-GK(Biotin); cysteine pairing not given here

The binders below were run against human insulin receptor (HIR) (human, UniProt P06213 28-1382, limits assumed) (assay: 125I-insulin competition, solubilised HIR).
SLEEEWAQIQCEVWGRCSESFYDWFERQL [S564] gave a Kd of 13 pM.
With SLEEEWAQIESEVWGRSESFYDWFERQLG [S573] the Kd was 36 pM.
With SLEEEWAQIESEVWGRXESFYDWFERQLG (X17 = βturn (unit not explained)) [S581] the Kd was 12 pM.
Work on SLEEEWAQIECEVWGRGCSGSLDESFYDWFERQL [S561] yielded a Kd of 15 pM.
In the case of SLEEEWAQIECEVWGRGCPSY [S592], the Kd is reported as 1700 pM.
For SLEEEWAQVECEVYGRGCPPGLLDESFYHWFDRQLR [S553], the Kd was 7.3 pM.
Binder SLEEEWAQVECEVYGRGCPSFYDWFERQL [S531] has a Kd of 75 pM.
Binder LEEEWAQIQREVWHS[dP]ASESF[dY]D[dW]FERQL [S595] has a Kd of 620 pM.
SIEEEWAQIKCDVWGRCSESFYDWFERQL [S562] gave a Kd of 18 pM.
With Ac-SIEEEWAQIKCDVWGRGSESFYDWFERQL [S600] the Kd was 7.6 pM.
SIEEEWAQIKCDVWGRGCPSY [S593] was tested, and the Kd was 22 pM.
With SLEEEWAQIEEVWGRGPSESFYDWFERQLG (label printed as 3569; also called 3569) [S569] the Kd was 150 pM.
Binder SLEEEWAQIEEVWGRSESFYDWFERQLG [S572] has a Kd of 4800 pM.
For SLEEEWAQIECEVWGRCWHHSFYDWFERQL [S594], the Kd was 71 pM.
In the case of SLEEEWAQIEEVWGRPSESFYDWFERQLG [S570], the Kd is reported as 730 pM.
Binder SLEEEWAQIEEVWGRGSESFYDWFERQLG [S571] has a Kd of 1600 pM.
In the case of SLEEEWAQVECEVYGRGCXESFYDWFERQLG (not fully specified; X19 = βturn (unit not explained)) [S580], the Kd is reported as 12 pM.
Work on SLEEEWAQIECEVWGRGCPKGFYGWFRRRRG [S584] yielded a Kd of 9300 pM.
SLEEEWAQIECEVWGRGCSESFYDWFERQL [S559] gave a Kd of 21 pM.
Work on SLEEEWAQIQCEVWGR[dN][dC]SESFYDWFERQL (cysteine pairing not given here) [S563] yielded a Kd of 14 pM.
For SIEEEWAQIKCDVWGRGCSESFYDWFERQL [S556], the Kd was 32 pM.
In the case of SLEEEWAQVECEVYGRGCPSESFYDWFERQL [S530], the Kd is reported as 8 pM.
SLEEEWAQIECEVWGRGCPSESFYDWFERQL [S558] showed a Kd of 19 pM.
Binder SLEEEWAWVQCEVYGRGCPSESFYDWFERQL [S534] has a Kd of 10 pM.
With SLEEEWAQIQCEVWGRGCPSESFYDWFERQL [S606] the Kd was 4 pM.
B1 was tested, and the Kd was 2400 pM.
SLEEEWAQVECEVYGRGCPS [S547] was tested, and the Kd was 49000 pM.
For SLEEEWAQVECEVWGRGCPS [S548], the Kd was 4100 pM.
With Ac-SIEEEWAQIKCDVWGRGPSESFYDWFERQLG [S568] the Kd was 4.3 pM.
Binder SLEEEWAQIECEVYGRGCPSESFYDWFERQLG [S554] has a Kd of 6.4 pM.
Binder SLEEEWAQIEAEVWGRGAPSESFYDWFERQLG [S574] has a Kd of 9.2 pM.
Work on SLEEEWAQVECEVYGRGCPSESFYDWF[dV]RQLG (cysteine pairing not given here) [S555] yielded a Kd of 57 pM.
SLEEEWAQIECEVWGRGCPKGFYGWFRRRG [S582] showed a Kd of 2500 pM.
SLEEEWAQIQHELYGPAESESFYD[dW]FERQL [S596] gave a Kd of 45 pM.
GSLDESFYDWFERQLGK (N-terminal acetyl; POX (not explained) between G16 and K17) [S550] was tested, and the Kd was 40000 pM.
For LEEEWAQIECEV[Tyr(3-I)]GRGCSGSLDESFYDWFERQLG (cysteine pairing not given here) [S590], the Kd was 58 pM.
LEEEWAQVECEV[Tyr(3-I)]GRGCSGSLDESFYDWFERQLG (cysteine pairing not given here) [S588] was tested, and the Kd was 180 pM.
With B2 the Kd was 130 pM.
Work on SLEEEWAQVECEVYGRGCSGSLDESFYDWFERQLG [S549] yielded a Kd of 13 pM.
Work on SLEEEWAWVECEVYGRGCPSGSLDESFYDWFERQL [S532] yielded a Kd of 37 pM.
Binder B3 has a Kd of 26000 pM.
